Measurements taken from CN114605536A (JIANGSU QUANXIN BIOMEDICINE CO LTD, dated 2022).

Assays:
[1] = biological target: T1, 人胸腺基质淋巴细胞生成素 (Human Thymic Stromal Lymphopoietin, TSLP) (human, UniProt Q969D9 29-159); test: cell-based or functional assay
食蟹猴TSLP = 食蟹猴TSLP (cynomolgus monkey (食蟹猴), UniProt A0A7N9CAT7 29-159); test: cell-based or functional assay
[2] = biological target: T1, 人胸腺基质淋巴细胞生成素 (Human Thymic Stromal …); test: SPR, Biacore T200, 25°C, antibody captured on Protein A chip, human TSLP as analyte, 1:1 model, mean of three runs

食蟹猴TSLP, sequence (A0A7N9CAT7 entry or part of it): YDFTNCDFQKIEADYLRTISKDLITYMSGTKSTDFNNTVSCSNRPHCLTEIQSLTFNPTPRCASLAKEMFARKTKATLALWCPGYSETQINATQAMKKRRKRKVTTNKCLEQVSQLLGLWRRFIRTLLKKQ

抑制人TSLP诱导的PBMC细胞释放TARC(CCL17)活性的IC50 [1] | 抑制人TSLP诱导的SW756-STAT5-Luciferase报告基因细胞STAT5磷酸化活性的IC50 [1] | 抑制人TSLP诱导的全血释放TARC(CCL17)活性的IC50 [1] | 抑制食蟹猴TSLP诱导的SW756-STAT5-Luciferase报告基因细胞STAT5磷酸化活性的IC50 (食蟹猴TSLP) | Kd [2] | koff [2] | kon [2] | Binder
77.1 ng/mL | 0.837 ng/mL | 0.839 ng/mL | 0.889 ng/mL | 0.0175 nM | 2.99e-05 s⁻¹ | 1.74e+06 M⁻¹ s⁻¹ | QX008N (HZD8G2-57) (antibody, V domains shown) VH: EVQLVESGGGLVQPGGSLRLSCAASGFSLSSYYMSWVRQAPGKGLEWVGFISYGGSAYHATWAQGRFTISKDNSKNTLYLQMNSLRAEDTAVYYCAREFRSMTYGAEWGIWGQGTLVTVSS VL: AYQMTQSPSSVSASVGDRVTITCQASESIYDTLAWYQQKPGKAPKLLIYSASSLASGVPSRFSGSGSGTDFTLTISSLQPEDFATYYCQQGYTMPDVDKNPFGGGTKVEIKR
 |  |  | 1.88 ng/mL |  |  |  | Tezepelumab (antibody, V domains shown) VH: QMQLVESGGGVVQPGRSLRLSCAASGFTFRTYGMHWVRQAPGKGLEWVAVIWYDGSNKHYADSVKGRFTITRDNSKNTLNLQMNSLRAEDTAVYYCARAPQWELVHEAFDIWGQGTMVTVSS VL: SYVLTQPPSVSVAPGQTARITCGGNNLGSKSVHWYQQKPGQAPVLVVYDDSDRPSWIPERFSGSNSGNTATLTISRGEAGDEADYYCQVWDSSSDHVVFGGGTKLTVLG
